The data set is described as follows: In vitro release (dissolution) of Infliximab from packed silicone cup and of lyophilized powder. In kind it is physicochemical. The conditions noted are these: release into 600 μl water with stirring at room temperature (23° C.); UV absorption at 280 nm. On the procedure:
A solid drug pellet (FIG. 4, 402.) was created by mixing 75% infliximab with 25% hydroxy propyl methyl cellulose (HPMC). This solid pellet was packed into a silicone cup (FIG. 1, 101.). The drug can only release from one end of the silicone and this end is subsequently coated with a controlled release polymer formulation of 5 μl of 10% polylactic acid (FIG. 1, 107.) to control its release. Dissolution studies were performed with lyophilized infliximab powder and infliximab packed extended release formulations. For each sample, release into 600 μl water was carried out with stirring at room temperature (23° C.). Aliquots were removed at timed intervals and analyzed with UV absorption spectroscopy at 280 nm using a Spectramax Plus384 96 well plate reader.

This is an account of results in patent US20150202161A1, “PROCESS FOR MANUFACTURING DRUG DELIVERY FORMULATIONS” (O-RAY PHARMA, INC., priority 2012, published 2015).

Consider “Lyophilized infliximab powder: TNF-α inhibitor infliximab as unformulated lyophilized powder, comparator in dissolution study”, for which the “release upon addition to solvent” value was “releases almost immediately”.
